From patent publication US8691189B2, “Method of colorectal cancer detection by using radiolabeled anti-GRP78 peptide” (Institute of Nuclear Energy Research, Atomic Energy Council, priority 2011, dated 2014)
Where no end group is shown, it is not given here.

Target: T1, GRP78 (Mus musculus, UniProt P20029)
T1 construct: endogenous in cells; CT26 named for the mouse model
Assay: Immunofluorescence cell staining of colorectal cancer cells
Assay type: cell-based
Details: FITC-labeled, 1:50, 4° C. overnight, FIG. 3
Experimental: (A) Immunofluorescence cell staining 4: • (A1) Cell culturing 40: • I. A few colorectal cancer cells are cultured in a RPMI1640 of 10% fetal bovine serum (FBS) (containing 2 mM glutamine, penicillin (100 U/ml) and streptomycin ([…])). • II. The cells are put in a culture chamber having 5% CO2 at 37° C. • III. After being fully grown, the cells adhered on culture dishes are reacted with 0.05% Trypsin and are washed down. • IV. The cells washed down are further washed with a Hank's balanced salts solution. • V. The washed cells are obtained at a number about 1×10^4 to be put into a chamber slide having eight individual sections for further culturing. • VI. […] The sliced tissues are washed with a normal saline solution for 3 times each time for 5 minutes. • (A4) Fluorescence microscopy observation 43: • I. The sliced tissues are fully dried for observation with a microscope. • II. […] A fluorescence image is captured with a digital camera device. • IV. An image of the cells is captured under a visible light as a reference to the fluorescence image.
(A) Fluorescence immunoassay 7: • (A1) Fluorescence immunoassay of colorectal cancer 71: • As modern studies show, colorectal cancer cells and tissues show a lot of GRP78. […] As a result, the anti-GRP78 peptide is able to detect expression of GRP78 in colorectal cancer cell. • (A2) Fluorescence immunoassay of colorectal cancer tissue 72: […]

T1 sequence (P20029 20-655): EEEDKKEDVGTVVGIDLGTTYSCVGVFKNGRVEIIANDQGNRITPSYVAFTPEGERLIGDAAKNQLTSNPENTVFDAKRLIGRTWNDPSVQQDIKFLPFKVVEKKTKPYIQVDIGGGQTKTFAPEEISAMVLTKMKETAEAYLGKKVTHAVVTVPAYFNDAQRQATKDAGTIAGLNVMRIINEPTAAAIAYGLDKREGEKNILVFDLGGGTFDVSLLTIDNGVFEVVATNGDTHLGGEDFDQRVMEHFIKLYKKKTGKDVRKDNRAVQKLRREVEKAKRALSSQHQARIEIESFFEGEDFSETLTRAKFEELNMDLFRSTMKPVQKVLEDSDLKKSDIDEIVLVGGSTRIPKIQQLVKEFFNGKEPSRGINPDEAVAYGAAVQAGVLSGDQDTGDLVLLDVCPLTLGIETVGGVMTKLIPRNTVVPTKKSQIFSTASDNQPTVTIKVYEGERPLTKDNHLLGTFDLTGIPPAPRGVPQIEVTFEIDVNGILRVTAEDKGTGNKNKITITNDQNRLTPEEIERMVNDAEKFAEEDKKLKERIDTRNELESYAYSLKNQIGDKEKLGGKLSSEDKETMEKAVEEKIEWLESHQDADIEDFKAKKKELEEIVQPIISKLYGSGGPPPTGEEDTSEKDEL

Substance: YIFPYIELC [anti-GRP78 peptide]
- fluorescence expression (detection of GRP78 expression in colorectal cancer cell): obvious fluorescence expression

Substance: fluorescein isothiocyanate [pure FITC]
- fluorescence expression (detection of GRP78 expression in colorectal cancer cell): no fluorescence expression
